Results on two molecules are retold here after publication PMC12339391, “PEX39 facilitates the peroxisomal import of PTS2-containing proteins” (Nature Cell Biology, 2025).

For experiment [1], the target named is T1, FLAG-PEX7 (recombinant N-terminally FLAG-tagged human PEX7) (human, UniProt O00628 1-323).
T1 construct: PEX7, human; also called recombinant human FLAG-tagged PEX7; source: Hi5 insect cells (baculovirus, pACEBac1), purified (anti-FLAG M2 beads, FLAG peptide elution); not shown: FLAG, N-terminal, kept
T1 sequence (looked up): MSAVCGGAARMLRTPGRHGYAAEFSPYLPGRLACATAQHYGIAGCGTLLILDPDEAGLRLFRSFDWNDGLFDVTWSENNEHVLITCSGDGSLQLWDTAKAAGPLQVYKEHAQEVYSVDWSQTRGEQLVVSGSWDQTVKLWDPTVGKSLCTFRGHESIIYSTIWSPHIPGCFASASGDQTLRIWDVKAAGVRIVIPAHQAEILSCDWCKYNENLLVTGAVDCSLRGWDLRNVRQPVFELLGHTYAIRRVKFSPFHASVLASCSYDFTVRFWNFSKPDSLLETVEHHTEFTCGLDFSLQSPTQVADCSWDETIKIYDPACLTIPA
Kind of experiment: native gel or EMSA; only recombinant proteins, two at a time (approximately 5 µg each of FLAG-PEX7, GST-HsPEX39, His-PEX5(1–324), His-PHYH); Coomassie staining; excised bands immunoblotted. The conditions noted are these: both partners purified. A general note: In EMSA bound probe runs differently from free probe, usually more slowly.

In experiment [2] the target is T1, FLAG-PEX7 (recombinant N-terminally …). Kind of experiment: SEC; Superdex 200 Increase 3.2/300, 50 mM Tris-HCl pH 7.5, 150 mM NaCl, 1 mM EDTA; proteins (10–15 µg) alone or mixed, 15 min at 23 °C before injection; fractions on SDS-PAGE. Particulars: both partners purified. (In general: Size exclusion chromatography separates by hydrodynamic size, large species first.)

Where no end group is shown, it is not given here.

B1: GST-HsPEX39 (N-terminally GST-tagged human PEX39, C6ORF226) (natural protein, UniProt Q5I0X4 1-101, looked up)
chain: MERPRSPQCSAPASASASVTLAQLLQLVQQGQELPGLEKRHIAAIHGEPTASRLPRRPKPWEAAALAESLPPPTLRIGTAPAEPGLVEAATAPSSWHTVGP
notes: HsPEX39 (C6ORF226), human; plasmid pGEX-HsPEX39 (pGEX-6-P1); 101 residues by the printed limits of the 48–101 variant; also called recombinant HsPEX39; wild-type (WT) HsPEX39; source: E. coli BL21(DE3), purified (Glutathione Sepharose 4B); not shown: GST, N-terminal, kept
In the case of B1, the binding result in experiment [1] was “binds”.

B2: NtPEX13 (HsPEX13 residues 1–36 fused to Sumo1 with a hexa-histidine tag) (domain or fragment, human, UniProt Q92968 1-36, looked up)
chain: MASQPPPPPKPWETRRIPGAGPGPGPGPTFQSADLG
modifications: also: fused to Sumo1 with a hexa-histidine tag
notes: PEX13, human, residues 1–36; also called NtPEX13.Sumo.His; PEX13 N terminus; source: recombinant (plasmid pET23a-NtPEX13.Sumo.His); not shown: His6, C-terminal, kept
Regarding B2, in experiment [2], the binding result is recorded as “binds”.
